{"source": "patent US20190298743A1", "about": "“TREATMENT OF PAIN” (Takeda Pharmaceutical Company Limited, priority 2016, published 2019)", "molecules": {"B1": {"name": "cathepsin S: biased agonist protease of PAR2 (protein, UniProt P25774 115-331, looked up)", "Cathepsin S": "LPDSVDWREKGCVTEVKYQGSCGACWAFSAVGALEAQLKLKTGKLVSLSAQNLVDCSTEKYGNKGCNGGFMTTAFQYIIDNKGIDSDASYPYKAMDQKCQYDSKYRAATCSKYTELPYGREDVLKEAVANKGPVSVGVDARHPSFFLYRSGVYYEPSCTQNVNHGVLVVGYGDLNGKEYWLVKNSWGHNFGEEGYIRMARNKGNHCGIASFPSYPEI"}}, "key": {"[1]": {"experiment": "Protease-evoked mechanical hyperalgesia, von Frey paw withdrawal", "type": "in vivo, mice", "details": "ipsilateral paw", "description": "(§1) Immediately before experiments the mice were acclimatized to the experimental apparatus, room and investigator for 1-2 h on 2 successive days. Mechanical nociceptive responses were evaluated by paw withdrawal to stimulation of the plantar surface of the hind-paw with calibrated von Frey filaments. von Frey scores were measured in triplicate to establish a baseline for each animal on the day before experiments. Paw edema was estimated by measuring the thickness of the hindpaw using digital calipers before and after treatments. Mice were […] with 5% isoflurane for intraplantar injections. Dyngo4a (50 μM), PitStop2 (50 μM) or vehicle (0.2% DMSO in 0.9% NaCl) (all 10 μl) were injected into the left hindpaw. After 30 min, trypsin (10 nM), Cat-S (2.5 μM) or elastase (30 U) (all 10 μl) were injected into the same left hindpaw. von Frey scores (left and right paws) and paw thickness (left paw) were measured hourly for up to 4 h after protease injection. Investigators were blinded to the test agents."}, "PAR2 [2]": {"test_system": "PAR2", "experiment": "FRET biosensors for compartmentalised cAMP, PKC and ERK signals in HEK cells and rat dorsal root ganglia neurons", "type": "cell-based", "description": "(§2) The contribution of endocytosis of protease-activated receptor-2 (PAR2) was evaluated for generation of signals in subcellular compartments that mediate protease-evoked sensitization of nociceptors. Bioluminescence resonance energy transfer (BRET) was used to assess the proximity of PAR2 to resident proteins of the plasma membrane (KRas) and endosomes (Rab5a) in HEK cells. […] Förster resonance energy transfer (FRET) biosensors targeted to the plasma membrane, cytosol or nucleus were used to examine the capacity of proteases to generate signals in subcellular compartments of HEK cells and rat dorsal root ganglia neurons. […] Dynamin inhibitor Dyngo4a, Clathrin inhibitor Pitstop2 and dominant negative β-arrestin inhibited trypsin-evoked endocytosis of PAR2, and prevented trypsin-evoked activation of cytosolic cAMP and PKC and nuclear ERK. […] To examine the link between PAR2 endocytosis, compartmentalized signaling and nociceptor sensitization, perforated patch clamp recordings were made from mouse dorsal root ganglia neurons. […] The effects of proteases on excitability were blocked by the PAR2 antagonist GB88. Thus, canonical and biased proteases sensitize nociceptors by distinct mechanisms. For canonical agonists, PAR2 endocytosis generates compartmentalized signals subcellular compartments that underlie sustained excitability of nociceptive neurons. […]"}, "[3]": {"experiment": "Protease-evoked paw edema, hindpaw thickness", "type": "in vivo, mice", "details": "ipsilateral paw", "description": "as §1"}, "PAR2 [4]": {"test_system": "PAR2", "experiment": "BRET receptor trafficking, PAR2-RLuc8 with plasma membrane marker RIT-venus in HEK293 cells", "type": "cell-based", "details": "trypsin 10 nM", "description": "(§3) Bret studies of receptor trafficking were conducted to quantify PAR2 internalisation (RIT-venus) and trafficking to early endosomes (Rab5a-venus) upon stimulation with different agonists.\n(§4) After achieving ˜50% confluency within 10 cm dishes HEK293 cells were transiently transfected with 1 μg PAR2-RLuc8 and 4 μg of either RIT-venus or Rab5a-venus using PEI as a transfection agent. 24 hours post transfection, cells were seeded into poly-D-lysine coated 96-well isoplates. […] When used endocytic inhibitors were diluted in 1×HBSS+1% dimethyl sulfoxide (DMSO). Following the replacement of culture media cells were allowed to equilibrate at 37° C. for 30 minutes before the addition of colenterazine H [5 μM]. After a further 5 minute incubation BRET was assessed using a LUMIstar Omega microplate reader (BMG LabTech, Offenburg, Germany), with luminescence being read at 535 nm and 475 nm. A 4 minute baseline was obtained before the addition of vehicle (1×HBSS+/−1% DMSO) or protease, measurements were then continued for a further 30 minutes. BRET ratios were calculated using LUMIstar MARS analysis software and then corrected to baseline and vehicle treatments in Microsoft Excel 2013."}, "PAR2 [5]": {"test_system": "PAR2", "experiment": "BRET receptor trafficking, PAR2-RLuc8 with early endosomal marker Rab5a-venus in HEK293 cells", "type": "cell-based", "details": "trypsin 10 nM", "description": "as §3, §4"}, "PAR2 [6]": {"test_system": "PAR2", "experiment": "BRET proximity of PAR2 to KRas (plasma membrane) and Rab5a (endosomes) in HEK cells", "type": "cell-based", "details": "HEK cells", "description": "as §2"}, "DRG neurons": {"test_system": "DRG neurons", "experiment": "Perforated patch-clamp excitability (rheobase) of isolated DRG neurons", "type": "cell-based, mice", "details": "0 min and 30 min after washing", "description": "To assess the effects of proteases on excitability of nociceptors, DRG neurons were preincubated with trypsin, cathepsin S, elastase or vehicle (control), washed, and rheobase and action potential discharge at a current of twice rheobase were measured at 0 min or 30 min after washing.\nDRG (T9-T13) from C57BL/6 mice were digested by incubation in collagenase (1 mg/ml, Worthington Biochemical, Lakewood, N.J.) and dispase (4 mg/ml, Roche Life Science, Indianapolis, Ind.) for 10 min at 37° C., and were dispersed by trituration with a fire-polished Pasteur pipette. Cells were plated onto coverslips coated with laminin (0.017 mg/ml) and poly-D-lysine (2 mg/ml) in 24-well plates. […]\nNeuronal excitability was assessed by perforated patch-clamp recordings with amphotericin B (240 μg/ml) from small diameter neurons (<30 pF capacitance) in current clamp mode at room temperature. Only neurons with resting membrane potentials more negative than −40 mV were analyzed. Changes in excitability were quantified by measuring rheobase (minimum current to fire action potential) and numbers of action potentials discharged at twice rheobase. […]\nResults are expressed as mean±SE. […]"}}}
{"molecule": "B1", "values": [{"measurement": "Mechanical hyperalgesia after intraplantar injection of protease", "setting": "[1]", "value": "caused mechanical hyperalgesia of the ipsilateral paw that was sustained for at least 4 h"}, {"measurement": "Signals generated by protease in subcellular compartments", "setting": "PAR2 [2]", "value": "only activated cAMP and PKC at the plasma membrane and ERK in the cytosol"}, {"measurement": "Edema after intraplantar injection of protease", "setting": "[3]", "value": "edema of the ipsilateral paw that was maximal after 4 h"}, {"measurement": "Change in BRET between PAR2 and plasma membrane marker upon agonist stimulation", "setting": "PAR2 [4]", "value": "not observed"}, {"measurement": "Change in BRET between PAR2 and early endosomal marker upon agonist stimulation", "setting": "PAR2 [5]", "value": "not observed"}, {"measurement": "PAR2 endocytosis induced by agonist", "setting": "PAR2 [6]", "value": "did not induce PAR2 endocytosis"}, {"measurement": "Effect of protease on excitability (rheobase) of DRG neurons", "setting": "DRG neurons", "value": "immediate increase in excitability"}]}
